From US10883980 (TRUSTEES OF PRINCETON UNIVERSITY, dated 2021)

How the values were obtained:
[1] = biological target: the molecule itself; assay: Western blot (anti-HA) of lysates from cells expressing ORF3-HA; self-association
[2] = biological target: the molecule itself; assay: Western blot (anti-HA) of HepG2C3A lysates; self-association

Protein	binding result [1]	binding result [2]
ORF3-HA (HA-tagged wild-type HEV ORF3 protein, Kernow C1/p6) (other, Expressed by lentivirus in HepG2C3A cells and tested in cell lysate; also called HEV ORF3-HA; HA-tagged ORF3; not shown: HA tag; the name ORF3-HA puts it at the C-terminus) MGSPCALGLFCCCSSCFCLCCPRHRPASRLAVVVGGAAAVPAVVSGVTGLILSPSPSPIFIQPTPSPPISFHNPGLELALGSRPAPLAPLGVTSPSAPPLPPAVDLPQLGLRR	binds	–
ORF3[IFI59-61AAA], HA-tagged (other, Alanine triplet mutant of Kernow C1/p6 ORF3; also called ORF3[IF159-61AAA]; not shown: HA tag) MGSPCALGLFCCCSSCFCLCCPRHRPASRLAVVVGGAAAVPAVVSGVTGLILSPSPSPAAAQPTPSPPISFHNPGLELALGSRPAPLAPLGVTSPSAPPLPPAVDLPQLGLRR	–	binds
